# Experimental data reported in the supplement of paper PMC7877785.
# ± gives the uncertainty stated by the source.
# Assay: self-splicing fitness, log relative to wild type (ln ratio); higher = more splicing; Tetrahymena group I intron in knt gene, E. coli kanamycin selection, DiMSum; sequences stand for … in CUCUCU…GGAGGGAAAAGUUAUCAGGCAUGCACCUGGUAGCUAGUCUUUAAACCAAUAGAUUGCAUCGGUUUAAAAGGCAAGACCGUCAAAUUGCGGGAAAGGGGUCAACAGCCGUUCAGUACCAAGUCUCAGGGGAAACUUUGAGAUGGCCUUGCAAAGGGUAUGGUAAUAAGCUGACGGACAUGGUCCUAACCACGCAGCCAAGUCCUAAGUCAACAGAUCUUCUGUUGAUAUGGAUGCAGUUCACAGACUAAAUGUCGGUCGGGGAAGAUGUAUUCUUCUCAUAAGAUAUAGUCGGACCUCUCCUUAAUGGGAGCUAGCGGAUGAAGUGAUGCAACACUGGAGCCGCUGGGAACUAAUUUGUAUGCGAAAGUAUAUUGAUUAGUUUUGGAGUACUCGUGGUCG
# Method in brief: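 Pooled colonies went to amplicon sequencing on an Illumina HiSeq 2500 after six replicate transformations. The plates were LB agar with 100 μg/mL carbenicillin, 50 μM IPTG and 0.2% rhamnose, with or without 25 μg/mL kanamycin, incubated overnight at 37°C or 30°C. The E. coli BL21(DE3) library had all eight P1ex-region intron nucleotides randomised, the intron placed in the knt kanamycin-resistance gene on pET-22b(+). DiMSum fitness is the error-weighted combination of replicate fold changes, kanamycin against none, normalised to wild type.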
Sequence,self-splicing fitness (ln) (30 °C),self-splicing fitness (ln) (37 °C)
AAAAAGCAAUAUUACGACAA,-0.322 ± 0.1,0.331 ± 0.12
AAAAAGCAAUAUUACGACUU,0.0987 ± 0.065,-0.391 ± 0.085
AAAAAGCAAUAUUACGAGGG,-3.5 ± 0.18,-1.84 ± 0.16
AAAAAGCAAUAUUACGAUUU,0.149 ± 0.074,0.324 ± 0.095
AAAAAGCAAUAUUACGCACU,0.146 ± 0.079,0.322 ± 0.083
AAAAAGCAAUAUUACGCAUC,-2.24 ± 0.13,-1.34 ± 0.15
AAAAAGCAAUAUUACGCGAU,-2.51 ± 0.16,-1.07 ± 0.14
AAAAAGCAAUAUUACGCGCG,-0.0286 ± 0.091,-0.207 ± 0.11
AAAAAGCAAUAUUACGCUAU,-2.04 ± 0.11,-1.31 ± 0.11
AAAAAGCAAUAUUACGCUUC,-3.38 ± 0.3,–
AAAAAGCAAUAUUACGGAGG,-3.71 ± 0.21,-2.94 ± 0.2
AAAAAGCAAUAUUACGGAUA,-2.25 ± 0.11,-1.14 ± 0.097
AAAAAGCAAUAUUACGGCGA,-0.0921 ± 0.08,0.25 ± 0.12
AAAAAGCAAUAUUACGGGAC,-1.94 ± 0.098,-0.477 ± 0.11
AAAAAGCAAUAUUACGGGUG,-1.69 ± 0.062,-0.982 ± 0.077
AAAAAGCAAUAUUACGGGUU,-1.38 ± 0.075,-1.37 ± 0.11
AAAAAGCAAUAUUACGUAAC,-2.45 ± 0.13,-1.12 ± 0.13
AAAAAGCAAUAUUACGUAUA,-2.14 ± 0.14,-1.5 ± 0.15
AAAAAGCAAUAUUACGUCGG,-1.36 ± 0.082,-1.39 ± 0.1
AAAAAGCAAUAUUACGUCUA,-0.394 ± 0.053,0.068 ± 0.07
AAAAAGCAAUAUUACGUCUU,-0.301 ± 0.043,0.361 ± 0.063
AAAAAGCAAUAUUACGUGGU,-3.26 ± 0.11,-2.74 ± 0.12
AAAAAGCAAUAUUACGUUAG,-3.37 ± 0.17,-2.61 ± 0.16
AAACAGCAAUAUUACGAAAG,-2.21 ± 0.13,-1.57 ± 0.18
AAACAGCAAUAUUACGCCAA,-3.08 ± 0.25,-1.44 ± 0.15
AAACAGCAAUAUUACGCCAU,-3.26 ± 0.17,-2.42 ± 0.18

Sequence,self-splicing fitness (ln) (30 °C),self-splicing fitness (ln) (37 °C)
AAACAGCAAUAUUACGCGAG,-1.6 ± 0.076,-1.12 ± 0.096
AAACAGCAAUAUUACGCGGA,-2.23 ± 0.11,-1.02 ± 0.093
AAACAGCAAUAUUACGCUGA,-3.16 ± 0.14,-1.52 ± 0.11
AAACAGCAAUAUUACGGAAG,-3.7 ± 0.2,-1.8 ± 0.17
AAACAGCAAUAUUACGGCAU,-0.814 ± 0.066,-0.78 ± 0.08
AAACAGCAAUAUUACGGCUU,-0.312 ± 0.052,0.129 ± 0.07
AAACAGCAAUAUUACGGGAA,-2.41 ± 0.17,-1.24 ± 0.12
AAACAGCAAUAUUACGGGAC,-3.74 ± 0.25,-2.35 ± 0.26
AAACAGCAAUAUUACGGGCC,-3.42 ± 0.17,-2.29 ± 0.16
AAACAGCAAUAUUACGGGUG,-3.09 ± 0.094,-1.73 ± 0.089
AAACAGCAAUAUUACGGGUU,-2.28 ± 0.09,-1.8 ± 0.11
AAACAGCAAUAUUACGGUGA,-0.283 ± 0.093,-0.496 ± 0.12
AAACAGCAAUAUUACGGUGC,-2.97 ± 0.11,-3.4 ± 0.17
AAACAGCAAUAUUACGGUGG,-2.61 ± 0.096,-1.93 ± 0.12
AAACAGCAAUAUUACGGUUG,-1.99 ± 0.061,-0.629 ± 0.075
AAACAGCAAUAUUACGGUUU,-3.64 ± 0.11,-2.51 ± 0.12
AAACAGCAAUAUUACGUCAG,-3.36 ± 0.12,-2.41 ± 0.12
AAACAGCAAUAUUACGUGUG,-2.38 ± 0.057,-1.38 ± 0.07
AAACAGCAAUAUUACGUUGA,-2.58 ± 0.094,-1.23 ± 0.089
AAACAGCAAUAUUACGUUGG,-3.61 ± 0.1,-2.43 ± 0.11
AAACAGCAAUAUUACGUUGU,-4.04 ± 0.1,-2.73 ± 0.1
AAACAGCAAUAUUACGUUUC,-3.8 ± 0.1,-2.73 ± 0.11
AAAGAGCAAUAUUACGAACC,–,-1.39 ± 0.46
AAAGAGCAAUAUUACGAUAG,-3.88 ± 0.23,-2.9 ± 0.2
AAAGAGCAAUAUUACGAUCU,-1.42 ± 0.12,-0.518 ± 0.12
AAAGAGCAAUAUUACGAUGA,-3.01 ± 0.25,-2.02 ± 0.19

Sequence,self-splicing fitness (ln) (30 °C),self-splicing fitness (ln) (37 °C)
AAAGAGCAAUAUUACGCAAU,-3.59 ± 0.21,-1.65 ± 0.16
AAAGAGCAAUAUUACGCACC,-2.03 ± 0.15,-0.855 ± 0.17
AAAGAGCAAUAUUACGCAUU,-3.61 ± 0.19,-1.88 ± 0.21
AAAGAGCAAUAUUACGCUGA,-2.1 ± 0.14,-2.6 ± 0.26
AAAGAGCAAUAUUACGGCAA,-3.23 ± 0.36,-1.58 ± 0.19
AAAGAGCAAUAUUACGGGUC,-3.24 ± 0.21,-3.09 ± 0.37
AAAGAGCAAUAUUACGGUAG,-3.9 ± 0.27,-2.11 ± 0.18
AAAGAGCAAUAUUACGGUGC,-3.49 ± 0.17,-1.54 ± 0.15
AAAGAGCAAUAUUACGGUGG,-2.85 ± 0.15,-2.14 ± 0.25
AAAGAGCAAUAUUACGUAGA,-3.25 ± 0.24,-1.7 ± 0.2
AAAGAGCAAUAUUACGUGGA,-3.36 ± 0.32,-2.67 ± 0.26
AAAGAGCAAUAUUACGUGGU,-4.52 ± 0.27,-3.08 ± 0.18
AAAGAGCAAUAUUACGUGUA,-3.3 ± 0.16,-2.27 ± 0.22
AAAGAGCAAUAUUACGUGUC,-3.42 ± 0.15,-2.2 ± 0.12
AAAUAGCAAUAUUACGAGGC,-3.64 ± 0.47,–
AAAUAGCAAUAUUACGCCAG,-2.53 ± 0.24,-2.09 ± 0.42
AAAUAGCAAUAUUACGCCGU,-1.37 ± 0.21,0.028 ± 0.18
AAAUAGCAAUAUUACGCGGA,-1.9 ± 0.12,-0.348 ± 0.081
AAAUAGCAAUAUUACGCUGG,-1.94 ± 0.13,-1.15 ± 0.17
AAAUAGCAAUAUUACGCUGU,-3.27 ± 0.14,-1.89 ± 0.1
AAAUAGCAAUAUUACGGAUU,-0.612 ± 0.074,-1.1 ± 0.09
AAAUAGCAAUAUUACGGCAU,-0.403 ± 0.093,-0.183 ± 0.13
AAAUAGCAAUAUUACGGGAC,-3.19 ± 0.29,-1.57 ± 0.24
AAAUAGCAAUAUUACGGUCC,-1.33 ± 0.12,-0.378 ± 0.19
AAAUAGCAAUAUUACGGUGG,-3.94 ± 0.21,-2.68 ± 0.17
